Results published in IntAct's records for PubMed 20802461.

B1: Mitogen-activated protein kinase ERK-A (Drosophila melanogaster (Fruit fly)), P40417 (parent)
chain: MEEFNSSGSVVNGTGSTEVPQSNAEVIRGQIFEVGPRYIKLAYIGEGAYGMVVSADDTLTNQRVAIKKISPFEHQTYCQRTLREITILTRFKHENIIDIRDILRVDSIDQMRDVYIVQCLMETDLYKLLKTQRLSNDHICYFLYQILRGLKYIHSANVLHRDLKPSNLLLNKTCDLKICDFGLARIADPEHDHTGFLTEYVATRWYRAPEIMLNSKGYTKSIDIWSVGCILAEMLSNRPIFPGKHYLDQLNHILGVLGSPSRDDLECIINEKARNYLESLPFKPNVPWAKLFPNADALALDLLGKMLTFNPHKRIPVEEALAHPYLEQYYDPGDEPVAEVPFRINMENDDISRDALKSLIFEETLKFKERQPDNAP

Tests used:
Conditions in all cases: with arrb2_human ARRB2, P32121
[1] = variants of: B1
[2] = variants of: B1; remark: listed apart in the source
[3] = variants of: B1; remark: listed apart in the source

| Variant | effect of a mutation on the interaction [1] | effect of a mutation on the interaction [2] | effect of a mutation on the interaction [3] |
| --- | --- | --- | --- |
| MEEFNSSGSVVNGTGSTEVPQSNAEVIRGQIFEVGPRYIKLAYIGEGAYGMVVSADDTLTNQRVAIKKISPFEHQTYCQRTLREITILTRFKHENIIDIRDILRVDSIDQMRDVYIVQCLMETDLYKLLKTQRLSNDHICYFLYQILRGLKYIHSANVLHRDLKPSNLLLNKTCDLKICDFGLARIADPEHDHTGFLTEEVATRWYRAPEIMLNSKGYTKSIDIWSVGCILAEMLSNRPIFPGKHYLDQLNHILGVLGSPSRDDLECIINEKARNYLESLPFKPNVPWAKLFPNADALALDLLGKMLTFNPHKRIPVEEALAHPYLEQYYDPGDEPVAEVPFRINMENDDISRDALKSLIFEETLKFKERQPDNAP [Y200E] | disrupting interaction | decreasing interaction | – |
| MEEFNSSGSVVNGTGSTEVPQSNAEVIRGQIFEVGPRYIKLAYIGEGAYGMVVSADDTLTNQRVAIKKISPFEHQTYCQRTLREITILTRFKHENIIDIRDILRVDSIDQMRDVYIVQCLMETDLYKLLKTQRLSNDHICYFLYQILRGLKYIHSANVLHRDLKPSNLLLNKTCDLKICDFGLARIADPEHDHTGFLEEYVATRWYRAPEIMLNSKGYTKSIDIWSVGCILAEMLSNRPIFPGKHYLDQLNHILGVLGSPSRDDLECIINEKARNYLESLPFKPNVPWAKLFPNADALALDLLGKMLTFNPHKRIPVEEALAHPYLEQYYDPGDEPVAEVPFRINMENDDISRDALKSLIFEETLKFKERQPDNAP [T198E] | disrupting interaction | – | disrupting interaction strength |
